Literature values, collected in PMC10524267.

Biological target: CX3CR1 (Homo sapiens) (UniProt P49238)
Sequence of UniProt P49238 (P49238 whole entry): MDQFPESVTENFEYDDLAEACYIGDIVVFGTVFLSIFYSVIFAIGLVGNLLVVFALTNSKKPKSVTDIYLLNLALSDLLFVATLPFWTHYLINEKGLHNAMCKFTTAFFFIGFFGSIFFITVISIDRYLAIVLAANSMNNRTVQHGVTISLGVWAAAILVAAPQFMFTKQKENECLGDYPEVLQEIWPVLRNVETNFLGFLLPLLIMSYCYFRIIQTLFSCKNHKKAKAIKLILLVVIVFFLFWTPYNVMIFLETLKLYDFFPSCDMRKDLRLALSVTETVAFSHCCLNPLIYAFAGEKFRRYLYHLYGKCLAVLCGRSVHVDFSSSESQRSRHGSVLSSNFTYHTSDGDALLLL

Kd: 0.91 nM
Substance: CX3CL1 (from UniProt P78423)
